Substitutions are numbered along the chain they refer to.
T1: human TNFR2 (human, UniProt P20333 23-461)
T1 construct: expressed on the surface of CHO cells; also called HuTNFR2; TNFRSF1B
T1 sequence: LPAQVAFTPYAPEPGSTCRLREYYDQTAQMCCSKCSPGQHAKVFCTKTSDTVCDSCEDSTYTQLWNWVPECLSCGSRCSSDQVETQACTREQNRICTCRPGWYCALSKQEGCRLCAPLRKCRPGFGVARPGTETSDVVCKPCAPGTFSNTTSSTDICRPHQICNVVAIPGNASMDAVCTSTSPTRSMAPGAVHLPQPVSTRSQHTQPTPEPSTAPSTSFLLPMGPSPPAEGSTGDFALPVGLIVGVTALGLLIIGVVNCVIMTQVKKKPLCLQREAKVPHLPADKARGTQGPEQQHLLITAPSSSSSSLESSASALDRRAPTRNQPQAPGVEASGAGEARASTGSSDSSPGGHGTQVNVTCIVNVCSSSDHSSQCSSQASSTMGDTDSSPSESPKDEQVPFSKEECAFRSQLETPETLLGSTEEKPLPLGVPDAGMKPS

B1: IgG 1918 (antibody, name in Kabat numbering, V domains shown)
VH: QVQLVQSGAEVKKPGASVKVSCKVSGFSFPSSGVDWVRQAPGQGLEWLGVTRGEGSTHYNQKFQGRVTITKDTSKSTVYMELSSLRSEDTAVYYCASGEWDEGFVYWGQGTLVTVSS
VL: DIQLTQSPSFLSASVGDRVTITCKASQNVGTAVAWYQQKPGKAPKLLIYAASTLQSGVPSRFSGSGSGTEFTLTISSLQPEDFATYYCQQYNSYPFGGGTKVEIKR
notes: IgG
B2: IgG 1922 (antibody, name in Kabat numbering, V domains shown)
VH: B1 VH with R52W, E54V, W100S, D101T
VL: B1 VL
notes: IgG
B3: IgG 1925 (antibody, name in Kabat numbering, V domains shown)
VH: B1 VH with R52W, E54V, W100Q
VL: B1 VL
notes: IgG
B4: IgG 1924 (antibody, name in Kabat numbering, V domains shown)
VH: B1 VH with R52W, E54V, W100R
VL: B1 VL
notes: IgG
B5: IgG 1927 (antibody, name in Kabat numbering, V domains shown)
VH: B1 VH
VL: B1 VL with N92Y, Y94T
notes: IgG
B6: IgG 1926 (antibody, name in Kabat numbering, V domains shown)
VH: B1 VH with R52K, E54Q
VL: B1 VL with N92Y, Y94T
notes: IgG
B7: IgG 1921 (antibody, name in Kabat numbering, V domains shown)
VH: B1 VH with R52H, E54S
VL: B1 VL
notes: IgG
B8: TetraFab 2058 (antibody)
heavy: QVQLVQSGAEVKKPGASVKVSCKVSGFSFPSSGVDWVRQAPGQGLEWLGVTHGSGSTHYNQKFQGRVTITKDTSKSTVYMELSSLRSEDTAVYYCASGEWDEGFVYWGQGTLVTVSSASTKGPSVFPLAPSSKSTSGGTAALGCLVKDYFPEPVTVSWNSGALTSGVHTFPAVLQSSGLYSLSSVVTVPSSSLGTQTYICNVNHKPSNTKVDKKVEPKSCGGGGSQVQLVQSGAEVKKPGASVKVSCKVSGFSFPSSGVDWVRQAPGQGLEWLGVTHGSGSTHYNQKFQGRVTITKDTSKSTVYMELSSLRSEDTAVYYCASGEWDEGFVYWGQGTLVTVSSASTKGPSVFPLAPSSKSTSGGTAALGCLVKDYFPEPVTVSWNSGALTSGVHTFPAVLQSSGLYSLSSVVTVPSSSLGTQTYICNVNHKPSNTKVDKKVEPKSCDKTHTCPPCPAPEAAGAPSVFLFPPKPKDTLMISRTPEVTCVVVDVSHEDPEVKFNWYVDGVEVHNAKTKPREEQYNSTYRVVSVLTVLHQDWLNGKEYKCKVSNKALPAPIEKTISKAKGQPREPQVYTLPPSREEMTKNQVSLTCLVKGFYPSDIAVEWESNGQPENNYKTTPPVLDSDGSFFLYSKLTVDKSRWQQGNVFSCSVMHEALHNHYTQKSLSLSPGK
light: DIQLTQSPSFLSASVGDRVTITCKASQNVGTAVAWYQQKPGKAPKLLIYAASTLQSGVPSRFSGSGSGTEFTLTISSLQPEDFATYYCQQYSSYPLTFGGGTKVEIKRTVAAPSVFIFPPSDEQLKSGTASVVCLLNNFYPREAKVQWKVDNALQSGNSQESVTEQDSKDSTYSLSSTLTLSKADYEKHKVYACEVTHQGLSSPVTKSFNRGEC
notes: TetraFab
B9: TetraFab 2142 (antibody)
heavy: B8 heavy with H52R, S54E, H277R, S279E
light: B8 light with Q89L, Y91K
notes: TetraFab
B10: TetraFab 2192 (antibody)
heavy: B8 heavy with H52L, S54H, W100H, H277L, S279H, W325H
light: B8 light with Q89L
notes: TetraFab
B11: TetraFab 2176 (antibody)
heavy: B8 heavy with H52W, S54V, W100H, H277W, S279V, W325H
light: B8 light with Q89L
notes: TetraFab
B12: TetraFab 2175 (antibody)
heavy: B8 heavy with H52W, S54V, W100S, D101T, H277W, S279V, W325S, D326T
light: B8 light with Q89L
notes: TetraFab
B13: TetraFab 2059 (antibody)
heavy: B8 heavy with H52W, S54V, W100S, D101T, H277W, S279V, W325S, D326T
light: B8 light
notes: TetraFab
B14: TetraFab 2066 (antibody)
heavy: B8 heavy with H52K, S54Q, W100Q, H277K, S279Q, W325Q
light: B8 light
notes: TetraFab
B15: TetraFab 2173 (antibody)
heavy: B8 heavy with H52L, S54H, H277L, S279H
light: B8 light with Q89L
notes: TetraFab
B16: TetraFab 2150 (antibody)
heavy: B8 heavy with H52K, S54Q, W100S, D101T, H277K, S279Q, W325S, D326T
light: B8 light with Q89L, Y91K
notes: TetraFab
B17: TetraFab 2060 (antibody)
heavy: B8 heavy with H52W, S54V, W100H, H277W, S279V, W325H
light: B8 light
notes: TetraFab
B18: TetraFab 2147 (antibody)
heavy: B8 heavy with H52W, S54V, W100H, H277W, S279V, W325H
light: B8 light with Q89L, Y91K
notes: TetraFab
B19: TetraFab 2179 (antibody)
heavy: B8 heavy with H52K, S54Q, W100S, D101T, H277K, S279Q, W325S, D326T
light: B8 light with Q89L
notes: TetraFab
B20: TetraFab 2065 (antibody)
heavy: B8 heavy with H52K, S54Q, W100R, H277K, S279Q, W325R
light: B8 light
notes: TetraFab
B21: TetraFab 2185 (antibody)
heavy: B8 heavy with H52R, S54E, W100R, H277R, S279E, W325R
light: B8 light with Q89L
notes: TetraFab
B22: TetraFab 2154 (antibody)
heavy: B8 heavy with H52R, S54E, W100S, D101T, H277R, S279E, W325S, D326T
light: B8 light with Q89L, Y91K
notes: TetraFab
B23: TetraFab 2172 (antibody)
heavy: B8 heavy with H52F, G53Q, S54E, H277F, G278Q, S279E
light: B8 light with Q89L
notes: TetraFab
B24: TetraFab 2162 (antibody)
heavy: B8 heavy with H52L, S54H, W100S, D101T, H277L, S279H, W325S, D326T
light: B8 light with Q89L, Y91K
notes: TetraFab
B25: TetraFab 2079 (antibody)
heavy: B8 heavy with W100S, D101T, W325S, D326T
light: B8 light
notes: TetraFab
B26: TetraFab 2069 (antibody)
heavy: B8 heavy with H52R, S54E, W100R, H277R, S279E, W325R
light: B8 light
notes: TetraFab
B27: TetraFab 2075 (antibody)
heavy: B8 heavy with H52L, S54H, W100S, D101T, H277L, S279H, W325S, D326T
light: B8 light
notes: TetraFab
B28: TetraFab 2191 (antibody)
heavy: B8 heavy with H52L, S54H, W100S, D101T, H277L, S279H, W325S, D326T
light: B8 light with Q89L
notes: TetraFab
B29: TetraFab 2156 (antibody)
heavy: B8 heavy with H52R, S54E, W100R, H277R, S279E, W325R
light: B8 light with Q89L, Y91K
notes: TetraFab
B30: TetraFab 2167 (antibody)
heavy: B8 heavy with W100H, W325H
light: B8 light with Q89L, Y91K
notes: TetraFab
B31: TetraFab 2163 (antibody)
heavy: B8 heavy with H52L, S54H, W100H, H277L, S279H, W325H
light: B8 light with Q89L, Y91K
notes: TetraFab
B32: TetraFab 2174 (antibody)
heavy: B8 heavy
light: B8 light with Q89L
notes: TetraFab
B33: TetraFab 2153 (antibody)
heavy: B8 heavy with H52K, S54Q, W100Q, H277K, S279Q, W325Q
light: B8 light with Q89L, Y91K
notes: TetraFab
B34: TetraFab 2143 (antibody)
heavy: B8 heavy with H52F, G53Q, S54E, H277F, G278Q, S279E
light: B8 light with Q89L, Y91K
notes: TetraFab
B35: TetraFab 2182 (antibody)
heavy: B8 heavy with H52K, S54Q, W100Q, H277K, S279Q, W325Q
light: B8 light with Q89L
notes: TetraFab
B36: TetraFab 2063 (antibody)
heavy: B8 heavy with H52K, S54Q, W100S, D101T, H277K, S279Q, W325S, D326T
light: B8 light
notes: TetraFab
B37: TetraFab 2076 (antibody)
heavy: B8 heavy with H52L, S54H, W100H, H277L, S279H, W325H
light: B8 light
notes: TetraFab

target: T1, human TNFR2; assay: binding to human TNFR2 CHO cells

binding result	Binder
no binding	B1
no binding	B2
no binding	B3
no binding	B4
no binding	B5
no binding	B6
no binding	B7
no binding	B8
no binding	B9
no binding	B10
no binding	B11
no binding	B12
no binding	B13
no binding	B14
no binding	B15
no binding	B16
no binding	B17
no binding	B18
no binding	B19

binding result	Binder
no binding	B20
no binding	B21
no binding	B22
no binding	B23
no binding	B24
no binding	B25
no binding	B26
no binding	B27
no binding	B28
no binding	B29
no binding	B30
no binding	B31
no binding	B32
no binding	B33
no binding	B34
no binding	B35
no binding	B36
no binding	B37

Source: patent publication US20230406951A1 (Pfizer, published 2023)
